Earlier results on one molecule are cited in article PMC4540356 (Thrombosis and haemostasis, 2010).

This data set concerns endothelial cells. As to conditions: via activation of ERK1/2 and Akt, ref [39].

B1: nicotinomide phosphoribosyltransferase/pre-B cell colony-enhancing factor (protein, UniProt P43490 1-491, looked up)
Nicotinamide …: MNPAAEAEFNILLATDSYKVTHYKQYPPNTSKVYSYFECREKKTENSKLRKVKYEETVFYGLQYILNKYLKGKVVTKEKIQEAKDVYKEHFQDDVFNEKGWNYILEKYDGHLPIEIKAVPEGFVIPRGNVLFTVENTDPECYWLTNWIETILVQSWYPITVATNSREQKKILAKYLLETSGNLDGLEYKLHDFGYRGVSSQETAGIGASAHLVNFKGTDTVAGLALIKKYYGTKDPVPGYSVPAAEHSTITAWGKDHEKDAFEHIVTQFSSVPVSVVSDSYDIYNACEKIWGEDLRHLIVSRSTQAPLIIRPDSGNPLDTVLKVLEILGKKFPVTENSKGYKLLPPYLRVIQGDGVDINTLQEIVEGMKQKMWSIENIAFGSGGGLLQKLTRDLLNCSFKCSYVVTNGLGINVFKDPVADPNKRSKKGRLSLHRTPAGNFVTLEEGKGDLEEYGQDLLHTVFKNGKVTKSYSFDEIRKNAQLNIELEAAHH
B1: the “peNOS and NO induction in endothelial cells” value was “induce peNOS and NO in endothelial cells”.
